Reference: article doi:10.1101/2022.11.10.512828
Where two headings read alike, the source gives them in different places. Values belong to the substance of their own block, whether it stands above or below them.

Assays:
[1] = biological target: LS-αICD chain of the co-expression construct (pETDuet1, first cloning site) (Saccharomyces cerevisiae | rat) (UniProt P50861); test: densitometry of Coomassie-stained SDS-PAGE bands of the purified complex; conditions: scale: βICD chains to 2 αICD chains in the pentamer
[2] = biological target: LS-αβICD, heteropentamer of two LS-αICD and three LS-βICD chains (Saccharomyces cerevisiae | rat) (UniProt P50861); test: SEC
[3] = biological target: LS-αβICD, heteropentamer of two LS-αICD and three LS-βICD chains (Saccharomyces cerevisiae | rat) (UniProt P50861); test: ITC
[4] = biological target: LS-αβICD, heteropentamer of two LS-αICD and three LS-βICD chains (Saccharomyces cerevisiae | rat) (UniProt P50861); test: SEC; remark: listed apart in the source
[5] = biological target: LS-αβICD, heteropentamer of two LS-αICD and three LS-βICD chains (Saccharomyces cerevisiae | rat) (UniProt P50861); test: SEC; remark: listed apart in the source
[6] = biological target: unmodified lumazine synthase from Saccharomyces cerevisiae (LS^wt) (Saccharomyces cerevisiae) (UniProt P50861); test: AUC
[7] = biological target: unmodified lumazine synthase from Saccharomyces cerevisiae (LS^wt) (Saccharomyces cerevisiae) (UniProt P50861); test: SEC

stoichiometry N [1]: 3
Substance: LS-βICD chain of the co-expression construct (pETDuet1, second cloning site) (from UniProt P50861 1-138; P50861 139-169)

stoichiometry N (gephyrin trimers to 3 LS pentamers) [2]: 4
Kd [3]: 0.49 µM
stoichiometry N [3]: 0.57
amount of gephyrin bound [4]: 3 nmol
percent of gephyrin bound [4]: 75%
stoichiometry N (gephyrin trimer per LS pentamer) [4]: 1
stoichiometry N (gephyrin trimers to 3 LS pentamers) [4]: 3
amount of gephyrin bound [5]: 4 nmol
Substance: full-length rat gephyrin splice variant rC4 (natural protein)

Kd [3]: 0.68 µM
stoichiometry N [3]: 0.41
Substance: gephyrin E-domain (GephE) dimer (domain or fragment)

stoichiometry N [6]: 5
stoichiometry N [7]: 5
Substance: unmodified lumazine synthase from Saccharomyces cerevisiae (LS^wt) (from UniProt P50861 2-169) (enzyme)
